Measurements from patent US20260234247A1 (published 2026).
One block for each binder: values may come before it.

Assays:
Biotinylated LILRB1 [1] = biological target: T1, Biotinylated LILRB1 (UniProt Q8NHL6 24-458, limits assumed, biotinylated (sites not given)); assay: epitope binning ELISA, coated 1 ug/ml; competitor hz73D1.v1 at 20 ug/ml
Biotinylated LILRB1 [2] = biological target: T1, Biotinylated LILRB1; assay: epitope binning ELISA, coated 1 ug/ml; competitor LK-RB1-12 at 20 ug/ml
Biotinylated LILRB1 [3] = biological target: T1, Biotinylated LILRB1; assay: epitope binning ELISA, coated 1 ug/ml; competitor 15G8 at 20 ug/ml
Biotinylated LILRB1 [4] = biological target: T1, Biotinylated LILRB1; assay: epitope binning ELISA, coated 1 ug/ml; competitor LK-RB1-33 at 20 ug/ml
Biotinylated LILRB1 [5] = biological target: T1, Biotinylated LILRB1; assay: epitope binning ELISA, coated 1 ug/ml; competitor LK-RB1-16 at 20 ug/ml
Biotinylated LILRB1 [6] = biological target: T1, Biotinylated LILRB1; assay: epitope binning ELISA, coated 1 ug/ml; competitor LK-RB1-47 at 20 ug/ml
Biotinylated LILRB1 [7] = biological target: T1, Biotinylated LILRB1; assay: epitope binning ELISA, coated 1 ug/ml; competitor LK-RB1-9 at 20 ug/ml
Biotinylated LILRB1 [8] = biological target: T1, Biotinylated LILRB1; assay: epitope binning ELISA, coated 1 ug/ml; competitor LK-RB1-31 at 20 ug/ml
human LILRB1 = biological target: T2, human LILRB1 (human, UniProt Q8NHL6 24-458, limits assumed); assay: Octet off-rate ranking;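 further: antibody dissociation rate constants against cynomolgus LILRB2 plus human LILRB1, LILRB2, LILRA1 and LILRA2, measured on an Octet instrument to rank binding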
T2 construct: also called hLILRB1

human LILRA1 [9] = biological target: T3, human LILRA1 (human, UniProt O75019 17-461, limits assumed); assay: Octet off-rate ranking;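 further: antibody dissociation rate constants against cynomolgus LILRB2 plus human LILRB1, LILRB2, LILRA1 and LILRA2, measured on an Octet instrument to rank binding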
T3 construct: also called hLILRA1
T3 sequence (O75019 17-461 limits assumed): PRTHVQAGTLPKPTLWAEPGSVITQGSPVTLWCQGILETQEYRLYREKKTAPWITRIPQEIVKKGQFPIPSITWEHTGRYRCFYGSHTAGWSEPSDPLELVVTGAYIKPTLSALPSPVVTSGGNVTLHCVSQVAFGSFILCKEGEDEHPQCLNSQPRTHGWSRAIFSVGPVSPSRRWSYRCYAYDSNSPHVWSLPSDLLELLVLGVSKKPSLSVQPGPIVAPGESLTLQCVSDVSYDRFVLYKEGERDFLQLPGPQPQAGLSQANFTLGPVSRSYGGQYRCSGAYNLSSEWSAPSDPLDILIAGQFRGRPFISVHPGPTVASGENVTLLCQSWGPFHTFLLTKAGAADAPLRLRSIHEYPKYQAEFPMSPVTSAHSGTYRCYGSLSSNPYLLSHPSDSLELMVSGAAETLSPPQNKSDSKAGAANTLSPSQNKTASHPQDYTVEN

human LILRA2 [10] = biological target: T4, human LILRA2 (human, UniProt Q8N149 24-449, limits assumed); assay: Octet off-rate ranking;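 further: antibody dissociation rate constants against cynomolgus LILRB2 plus human LILRB1, LILRB2, LILRA1 and LILRA2, measured on an Octet instrument to rank binding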
T4 construct: also called hLILRA2

[11] = biological target: T5, human LILRB1 expressed on CHOK1 cells (human, UniProt Q8NHL6 24-650); assay: flow cytometry (FACS) binding to CHOK1-hLILRB1 cells
T5 construct: whole, on cells; also called CHOK1-hLILRB1; CHOK1-LILRB1

[12] = biological target: T6, human LILRB2 expressed on CHOK1 cells (human, UniProt Q8N423 22-597); assay: cell based RBA on CHOK1-hLILRB2 cells, flow cytometry; competitor HLA-G
T6 construct: whole, on cells; also called CHOK1-hLILRB2; CHOK1-LILRB2

[13] = biological target: T6, human LILRB2 expressed on CHOK1 cells; assay: flow cytometry (FACS) binding to CHOK1-hLILRB2 cells
[14] = biological target: T5, human LILRB1 expressed on CHOK1 cells; assay: cell based RBA on CHOK1-hLILRB1 cells, flow cytometry; competitor HLA-G
[15] = biological target: T7, human LILRB1 protein (Octet analyte) (human, UniProt Q8NHL6 24-458, limits assumed); assay: Octet (BLI), off rate ranking, kdis
T7 construct: The construct used in the Octet assay is not described; also called hLILRB1

[16] = biological target: T8, human LILRB2 protein (Octet analyte) (human, UniProt Q8N423 22-460, limits assumed); assay: Octet (BLI), off rate ranking, kdis
T8 construct: The construct used in the Octet assay is not described; also called hLILRB2

human LILRA1 [17] = biological target: T9, human LILRA1 (human, UniProt O75019 17-461, limits assumed); assay: ELISA, 200 nM antibody, OD450; + = 2-fold over ISO
T9 construct: Bought protein; also called hLILRA1
T9 sequence (O75019 17-461 limits assumed): as above

human LILRA2 [18] = biological target: T10, human LILRA2 (human, UniProt Q8N149 24-449); assay: ELISA, 200 nM antibody, OD450; + = 2-fold over ISO
T10 construct: Bought protein; also called hLILRA2
T10 sequence (Q8N149 24-449 limits assumed): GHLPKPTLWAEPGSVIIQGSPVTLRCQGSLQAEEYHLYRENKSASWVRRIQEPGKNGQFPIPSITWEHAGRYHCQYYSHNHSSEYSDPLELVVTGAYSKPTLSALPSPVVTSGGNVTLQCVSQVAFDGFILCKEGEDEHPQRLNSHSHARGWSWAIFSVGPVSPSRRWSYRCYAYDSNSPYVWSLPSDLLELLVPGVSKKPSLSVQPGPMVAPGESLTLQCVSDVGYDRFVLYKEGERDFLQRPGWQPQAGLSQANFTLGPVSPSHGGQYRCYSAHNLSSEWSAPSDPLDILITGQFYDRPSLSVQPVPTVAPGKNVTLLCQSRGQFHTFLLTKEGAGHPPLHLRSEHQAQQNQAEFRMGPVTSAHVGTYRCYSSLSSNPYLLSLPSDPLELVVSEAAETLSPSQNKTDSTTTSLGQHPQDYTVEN

human LILRA3 [19] = biological target: T11, human LILRA3 (human, UniProt Q8N6C8 24-439); assay: ELISA, OD450, antibody at 200 nM; + = 2-fold over ISO
T11 construct: bought protein coated for ELISA; also called hLILRA3
T11 sequence (Q8N6C8 24-439 limits assumed): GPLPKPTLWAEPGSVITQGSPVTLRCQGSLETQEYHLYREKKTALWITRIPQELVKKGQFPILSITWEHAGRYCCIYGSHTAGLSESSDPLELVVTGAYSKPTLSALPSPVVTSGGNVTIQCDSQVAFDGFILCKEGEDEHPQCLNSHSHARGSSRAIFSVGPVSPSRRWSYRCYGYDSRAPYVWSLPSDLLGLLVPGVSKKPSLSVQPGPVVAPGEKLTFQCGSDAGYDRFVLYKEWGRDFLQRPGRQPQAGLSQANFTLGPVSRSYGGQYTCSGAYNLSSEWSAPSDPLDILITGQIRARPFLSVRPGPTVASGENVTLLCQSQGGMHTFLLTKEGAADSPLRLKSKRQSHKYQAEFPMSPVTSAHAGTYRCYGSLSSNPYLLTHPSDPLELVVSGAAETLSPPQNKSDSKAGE

human LILRA2 [20] = biological target: T12, human LILRA2 (human, UniProt Q8N149 24-449); assay: as above
T12 construct: bought protein coated for ELISA; also called hLILRA2
T12 sequence (Q8N149 24-449 limits assumed): as the sequence (Q8N149 24-449 limits assumed) above

human LILRA1 [21] = biological target: T13, human LILRA1 (human, UniProt O75019 17-461, limits assumed); assay: as above
T13 construct: bought protein coated for ELISA; also called hLILRA1
T13 sequence (O75019 17-461 limits assumed): as the sequence (O75019 17-461 limits assumed) above

human LILRA3 [22] = biological target: T14, human LILRA3 (human, UniProt Q8N6C8 24-439); assay: as above; remark: listed apart in the source
T14 construct: bought protein coated for ELISA; also called hLILRA3
T14 sequence (Q8N6C8 24-439 limits assumed): as the sequence (Q8N6C8 24-439 limits assumed) above

human LILRB5 = biological target: T15, human LILRB5 (human, UniProt O75023 24-458); assay: as above
T15 construct: bought protein coated for ELISA; also called hLILRB5

human LILRB3 = biological target: T16, human LILRB3 (human, UniProt O75022 24-443); assay: as above
T16 construct: bought protein coated for ELISA; also called hLILRB3

human LILRA1 [23] = biological target: T17, human LILRA1 (human, UniProt O75019 17-461, limits assumed); assay: as above; remark: listed apart in the source
T17 construct: bought protein coated for ELISA; also called hLILRA1
T17 sequence (O75019 17-461 limits assumed): as the sequence (O75019 17-461 limits assumed) above

T5 sequence (Q8NHL6 24-650): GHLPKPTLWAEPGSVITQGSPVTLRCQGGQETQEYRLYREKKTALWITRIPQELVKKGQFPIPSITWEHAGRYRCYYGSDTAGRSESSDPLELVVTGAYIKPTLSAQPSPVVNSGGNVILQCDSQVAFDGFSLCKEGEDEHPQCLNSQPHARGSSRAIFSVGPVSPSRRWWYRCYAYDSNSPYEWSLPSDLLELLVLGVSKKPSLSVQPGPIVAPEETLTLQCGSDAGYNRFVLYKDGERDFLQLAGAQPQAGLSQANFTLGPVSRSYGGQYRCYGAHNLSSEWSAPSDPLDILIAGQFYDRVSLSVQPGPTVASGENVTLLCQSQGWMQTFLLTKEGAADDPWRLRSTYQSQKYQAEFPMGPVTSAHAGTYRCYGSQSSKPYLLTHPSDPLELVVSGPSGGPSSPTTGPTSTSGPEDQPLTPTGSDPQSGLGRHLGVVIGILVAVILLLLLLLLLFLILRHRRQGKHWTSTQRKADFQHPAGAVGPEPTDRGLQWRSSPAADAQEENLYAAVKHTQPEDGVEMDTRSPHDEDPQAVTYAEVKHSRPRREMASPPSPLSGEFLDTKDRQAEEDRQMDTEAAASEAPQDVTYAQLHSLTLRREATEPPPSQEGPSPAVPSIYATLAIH
T1 sequence (Q8NHL6 24-458 limits assumed): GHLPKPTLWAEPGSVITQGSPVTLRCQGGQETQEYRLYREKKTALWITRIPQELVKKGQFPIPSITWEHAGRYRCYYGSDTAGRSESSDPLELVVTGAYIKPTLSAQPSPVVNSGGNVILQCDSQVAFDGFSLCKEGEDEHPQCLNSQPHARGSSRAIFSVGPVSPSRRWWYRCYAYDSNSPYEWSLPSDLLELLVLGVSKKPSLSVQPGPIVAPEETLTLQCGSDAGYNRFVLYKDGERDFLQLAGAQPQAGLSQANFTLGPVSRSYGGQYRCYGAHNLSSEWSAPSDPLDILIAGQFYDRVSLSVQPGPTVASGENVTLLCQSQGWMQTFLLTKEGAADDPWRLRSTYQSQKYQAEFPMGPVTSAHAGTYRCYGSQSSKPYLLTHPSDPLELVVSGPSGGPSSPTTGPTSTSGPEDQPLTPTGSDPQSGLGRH
T6 sequence (Q8N423 22-597): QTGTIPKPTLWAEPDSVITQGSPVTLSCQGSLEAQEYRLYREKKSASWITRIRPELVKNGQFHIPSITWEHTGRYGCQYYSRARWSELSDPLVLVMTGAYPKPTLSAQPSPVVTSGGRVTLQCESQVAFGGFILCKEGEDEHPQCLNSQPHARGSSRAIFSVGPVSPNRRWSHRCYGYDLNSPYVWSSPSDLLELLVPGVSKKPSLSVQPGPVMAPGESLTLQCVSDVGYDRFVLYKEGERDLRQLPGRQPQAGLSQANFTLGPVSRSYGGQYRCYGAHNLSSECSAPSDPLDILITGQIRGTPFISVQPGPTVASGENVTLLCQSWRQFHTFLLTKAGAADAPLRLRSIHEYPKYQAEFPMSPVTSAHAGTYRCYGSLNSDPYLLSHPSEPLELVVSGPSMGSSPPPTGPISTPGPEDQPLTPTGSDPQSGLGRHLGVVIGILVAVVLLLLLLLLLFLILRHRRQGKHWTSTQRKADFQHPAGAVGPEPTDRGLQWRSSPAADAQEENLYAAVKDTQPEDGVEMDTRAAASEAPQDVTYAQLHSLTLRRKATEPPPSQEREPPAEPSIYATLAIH
T7 sequence (Q8NHL6 24-458 limits assumed): as the sequence (Q8NHL6 24-458 limits assumed) above
T2 sequence (Q8NHL6 24-458 limits assumed): as above
T4 sequence (Q8N149 24-449 limits assumed): as the sequence (Q8N149 24-449 limits assumed) above
T8 sequence (Q8N423 22-460 limits assumed): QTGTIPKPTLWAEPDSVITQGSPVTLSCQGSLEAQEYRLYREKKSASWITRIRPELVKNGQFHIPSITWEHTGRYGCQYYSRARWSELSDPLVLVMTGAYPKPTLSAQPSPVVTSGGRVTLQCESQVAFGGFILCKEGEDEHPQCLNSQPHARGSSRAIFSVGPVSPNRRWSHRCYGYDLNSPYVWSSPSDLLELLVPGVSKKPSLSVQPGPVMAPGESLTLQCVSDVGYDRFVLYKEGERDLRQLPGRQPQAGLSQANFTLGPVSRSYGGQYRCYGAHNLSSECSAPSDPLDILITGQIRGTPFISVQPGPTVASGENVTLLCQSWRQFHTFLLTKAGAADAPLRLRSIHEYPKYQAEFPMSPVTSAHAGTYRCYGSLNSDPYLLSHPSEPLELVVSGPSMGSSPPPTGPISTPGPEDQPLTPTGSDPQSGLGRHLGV

B1: LK-RB1-9 (antibody, human IgG4 S228P, kappa, V domains shown)
VH: QIQLVQSGPELKKPGETVKISCTASGYTFTTYGMSWVKQAPGKGLKWMGWINTYSGVPTYADDFKGRFAFSLETSASTAYLEINNVKNEDTATYFCARRRRTYHGYLCFDYWGQGTTLTVSS
VL: DIQMTQSPVSLSASVGETVTITCETSENIYGALNWYQRKQGKSPQLLIYGATNLADGMSSRFSGSGSGRQYSLEISSLHPDDVASYYCQNVLNTPWTFGGGTKLEIKR
Inhibition % (Biotinylated LILRB1 [1]): 88.1%
Inhibition % (Biotinylated LILRB1 [2]): 92.1%
Inhibition % (Biotinylated LILRB1 [3]): 48.6%
Inhibition % (Biotinylated LILRB1 [4]): 67.4%
Inhibition % (Biotinylated LILRB1 [5]): 21.9%
Inhibition % (Biotinylated LILRB1 [6]): 89.1%
Inhibition % (Biotinylated LILRB1 [7]): 73.9%
Inhibition % (Biotinylated LILRB1 [8]): 10.2%
koff (human LILRB1): 0.000162 s⁻¹
koff (human LILRA1 [9]): 0.000155 s⁻¹
koff (human LILRA2 [10]): 0.000885 s⁻¹

B2: LK-RBi-05 (bispecific antibody, human IgG4 S228P, kappa)
heavy: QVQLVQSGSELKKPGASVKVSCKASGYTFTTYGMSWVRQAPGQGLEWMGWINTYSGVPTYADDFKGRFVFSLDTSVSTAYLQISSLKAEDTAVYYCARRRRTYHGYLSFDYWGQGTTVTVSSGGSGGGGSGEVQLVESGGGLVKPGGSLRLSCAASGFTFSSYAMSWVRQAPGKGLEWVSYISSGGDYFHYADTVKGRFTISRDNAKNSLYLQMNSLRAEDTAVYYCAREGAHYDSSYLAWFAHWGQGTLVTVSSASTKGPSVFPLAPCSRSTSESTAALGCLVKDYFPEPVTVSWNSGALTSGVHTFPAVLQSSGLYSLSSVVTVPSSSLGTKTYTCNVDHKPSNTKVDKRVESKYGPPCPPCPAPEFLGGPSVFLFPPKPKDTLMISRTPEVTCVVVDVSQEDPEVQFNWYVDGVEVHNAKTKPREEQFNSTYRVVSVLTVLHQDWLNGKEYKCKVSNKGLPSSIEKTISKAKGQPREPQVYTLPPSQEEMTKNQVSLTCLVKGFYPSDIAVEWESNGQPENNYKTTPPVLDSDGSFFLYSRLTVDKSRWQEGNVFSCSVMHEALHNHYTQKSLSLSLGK
light: DIQMTQSPSSLSASVGDRVTITCETSENIYGALNWYQQKPGKAPKLLIYGATNLAEGVPSRFSGSGSGTDFTFTISSLQPEDIATYYCQNVLNTPWTFGGGTKLEIKGGSGGGGSGDIQMTQSPSSVSASVGDRVTITCRASENIYSNLAWYQQKPGKAPKLLIYAATNLAEGVPSRFSGSGSGTDYTLTISSLQPEDFATYYCQQFWDNPLTFGQGTKLEIKRTVAAPSVFIFPPSDEQLKSGTASVVCLLNNFYPREAKVQWKVDNALQSGNSQESVTEQDSKDSTYSLSSTLTLSKADYEKHKVYACEVTHQGLSSPVTKSFNRGEC
EC50 [11]: 2.32 nM
EC50 [12]: 0.43 µg/mL
EC50 [13]: 0.73 nM
EC50 [14]: 4.2 µg/mL
koff [15]: 0.00021 s⁻¹
koff [16]: 8.24e-06 s⁻¹

B3: LK-RB2-29 (antibody, human IgG4 S228P, kappa, V domains shown)
VH: QVQLQQSGAELARPGASVKLSCKASGYTFTSYWMQWVKQRPGQGLEWIGAIYPGDGDTRYTQKFKGKATLTADKSSSTAYMQLSSLASEDSAVYYCARGYYGSSYADYFDYWGQGTTLTVSS
VL: DIQMTQSPASLSASVGETVTITCRASGNIHNYLAWYQQKQGKSPQLLVYNAKTLADGVPSRFSGSGSGTQYSLKINSLQPEDFGSYYCQHFWSTPPTFGGGTKLEIKR
binding result (human LILRA1 [17]): binds
binding result (human LILRA2 [18]): binds

B4: LK-RBi-08 (bispecific antibody, human IgG4 S228P, kappa)
heavy: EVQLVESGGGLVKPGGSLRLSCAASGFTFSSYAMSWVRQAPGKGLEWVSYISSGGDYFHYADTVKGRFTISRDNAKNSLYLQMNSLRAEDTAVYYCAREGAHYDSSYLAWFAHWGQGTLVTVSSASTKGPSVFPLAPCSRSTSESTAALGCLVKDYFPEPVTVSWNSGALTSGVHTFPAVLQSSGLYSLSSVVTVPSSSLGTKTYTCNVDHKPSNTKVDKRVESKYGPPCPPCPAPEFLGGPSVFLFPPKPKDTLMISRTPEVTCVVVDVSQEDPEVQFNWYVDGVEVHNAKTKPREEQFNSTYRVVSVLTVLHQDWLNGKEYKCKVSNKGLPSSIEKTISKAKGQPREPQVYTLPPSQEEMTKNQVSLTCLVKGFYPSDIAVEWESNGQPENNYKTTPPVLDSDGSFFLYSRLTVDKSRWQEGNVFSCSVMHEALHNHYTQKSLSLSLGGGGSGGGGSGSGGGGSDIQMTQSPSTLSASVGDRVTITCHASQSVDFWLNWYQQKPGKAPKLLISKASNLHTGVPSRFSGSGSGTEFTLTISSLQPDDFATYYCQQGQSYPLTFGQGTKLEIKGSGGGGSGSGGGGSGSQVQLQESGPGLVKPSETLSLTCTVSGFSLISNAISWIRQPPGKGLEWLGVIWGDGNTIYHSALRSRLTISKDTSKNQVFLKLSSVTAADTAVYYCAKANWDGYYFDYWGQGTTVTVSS
light: DIQMTQSPSSVSASVGDRVTITCRASENIYSNLAWYQQKPGKAPKLLIYAATNLAEGVPSRFSGSGSGTDYTLTISSLQPEDFATYYCQQFWDNPLTFGQGTKLEIKRTVAAPSVFIFPPSDEQLKSGTASVVCLLNNFYPREAKVQWKVDNALQSGNSQESVTEQDSKDSTYSLSSTLTLSKADYEKHKVYACEVTHQGLSSPVTKSFNRGEC
EC50 [11]: 2.66 nM
EC50 [12]: 0.28 µg/mL
EC50 [13]: 0.37 nM
EC50 [14]: 6.03 µg/mL
koff [15]: 0.000166 s⁻¹
koff [16]: 5.68e-05 s⁻¹

B5: 15G8 (antibody, human IgG4 S228P, kappa, V domains shown)
VH: DVQLQGSGPGLVKPSETLSLTCSVTGYSITSGYYWNWIRQFPGKKLEWMGYISYDGSNNYNPSLKNRITISRDTSKNQFSLKLNSVTAADTATYYCAHGYSYYYAMDAWGQGTSVTVSS
VL: DIQMTQSPSSLSASVGDRVTITCRTSQDISNYLNWYQQKPGKAVKLLISYTSRLHSGVPSRFSGSGSGTDYTLTISSLQPEDFATYYCQQGNTLPTFGQGTKLEIKR
Inhibition % (Biotinylated LILRB1 [1]): -0.56%
Inhibition % (Biotinylated LILRB1 [2]): 3.58%
Inhibition % (Biotinylated LILRB1 [3]): 73%
Inhibition % (Biotinylated LILRB1 [4]): 90.5%
Inhibition % (Biotinylated LILRB1 [5]): -0.72%
Inhibition % (Biotinylated LILRB1 [6]): 13.5%
Inhibition % (Biotinylated LILRB1 [7]): 92.1%
Inhibition % (Biotinylated LILRB1 [8]): -0.67%
koff (human LILRB1): 0.00389 s⁻¹
koff (human LILRA1 [9]): 0.000278 s⁻¹
koff (human LILRA2 [10]): 0.00117 s⁻¹

B6: LK-RB1-45 (antibody, human IgG4 S228P, kappa, V domains shown)
VH: QVQLQQSGTELARPGASVKLSCKASGYTFTNFWMHWIKQRPGQGLEWIGYVNPTSDYTKYNQKFKDKATLTADKSSSTAYMQLNSLTYEDSAVYYCTRSSLYDTNYVFDSWGQGTTLTVSS
VL: DILLTQSPAILSVSPGERVSFSCRASQSIGRSIHWYQQRTNGSPRLLIKYASESISGIPSRFSGGGSGTDFTLSISNVESEDIADYYCQQSNNWPFTFGSGTKLEIKR
notes: anti-LILRB1 clone from mouse hybridoma
binding result (human LILRA3 [19]): binds

B7: LK-RB1-13 (antibody, human IgG4 S228P, kappa, V domains shown)
VH: QVTLKESGPGIVKPSQTLSLTCSFSGFSLSISGTGIGWIRQPSGKGLEWLAHIWWDDDKYYNPSLKSQVTISKDTSTKQVFLNITSVDTADTATYYCTRTELGRGDFWGQGTSVTVSS
VL: DILLTQSPAILSVSPGDRVSFSCRASQSTGTNIHWYQRRTNGSPRLLIKYGSESISGIPSRFSGSGTGTDFTLTINSVESEDIADYYCQQSYSWPYTFGGGTKLEIKR
notes: anti-LILRB1 antibody
binding result (human LILRA2 [20]): binds

Other lines, results leading:

binding result (human LILRA1 [21]): binds
binding result (human LILRA3 [22]): binds
B8: LK-RB1-15 (antibody, human IgG4 S228P, kappa, V domains shown)
VH: QVTLKESGPGIVKPSQTLSLTCSFSGFSLSISGTGIGWIRQPSGKGLEWLAHIWWDDDKYYNPSLKSQVTISKDTSTKQVFLNITSVDTADTATYYCTRTELGRGDFWGQGTSVTVSS
VL: DILLTQSPAILSVSPGDRVSFSCRASQSIGTNIHWYQRRTNGSPRLLIKYGSESISGIPSRFSGSGTGTDFTLTINSVESEDIADYYCQQSYSWPYTFGGGTKLEIKR
notes: anti-LILRB1 antibody

binding result (human LILRA1 [17]): binds
binding result (human LILRA2 [18]): binds
B9: LK-RB2-41 (antibody, human IgG4 S228P, kappa, V domains shown)
VH: EVQLQLSGPELVKPGASVKMSCKASGYTFTDYNMHWVKQSHGKSLEWIGYINPNNGGTTYNQKFKGKATLTVNKSSSTAYMELRSLTSEDSAVYYCARAPYYGSSYLLAYWGQGTLVTVSA
VL: DIVMTQSHKFMSTSVGDRVSITCKASQDVSTAVAWYQQKPGQSPKLLIYSASYRYTGVPDRFTGSGSGTDFTFTISSVQAEDLAIYYCQQHYSIPWTFGGGTKLEIKR

binding result (human LILRA1 [21]): binds
binding result (human LILRA3 [22]): binds
B10: LK-RB1-11 (antibody, human IgG4 S228P, kappa, V domains shown)
VH: QVTLKESGPGILQPSQTLSLTCSFSGFSLKTSGMSVGWIRQPSGKGLEWLAHIWWNDDKYYNPVLKGRLTISKDTSNNLVFLKIASVVSTDTATYYCVRYGNSHGYWYFDVWGTGTTVTVSS
VL: NIVLTQSPASLAVSLGQRATISCRASESVDSYGNNFIHWYQQKPGQPPKVLIYYASNLEAGVPARFSGSGSRTDFTLTIDPVEAEDAATYYCQQNNEDPYTFGGGTKLEIER
notes: anti-LILRB1 antibody

binding result (human LILRB5): binds
binding result (human LILRB3): binds
binding result (human LILRA3 [19]): binds
binding result (human LILRA1 [23]): binds
B11: LK-RB1-39 (antibody, human IgG4 S228P, kappa, V domains shown)
VH: EVQLQQSGAELVRPGASVKLSCTASGFNIKDDYVHWVNQRPEQGLEWIGWIDPENGDTGYASKFQDKATITADTSSNTAYLHLSSLTSEDTAVYYCTTTRWTGSYWGQGTTLTVSS
VL: QIVLTQSPAIMSASPGEKVTITCSASSSVNYMHWFQQKPGSSPKLWIYSTANLASGVPARFSGSGSGTSYSLTISRMEAEDAATYYCQQRSSYPPTWTFGGGTKLEIKR
notes: as for B6
